Results reported in PMC13477270.

Molecular target: miniTRIM37 RING–B-box-2–hcc (human | T. thermophilus) (UniProt O94972)
Assay: SEC-MALS

stoichiometry N: 2
Substance: miniTRIM37 RING–B-box-2–hcc (from UniProt O94972 1-158; O94972 214-254)
